Patent US20140087995A1 (published 2014)
Numbered stars: 1 amine (or outer) side, 2 acyl side, 3 side chain; on linkers, the order of the positions; unused ones are H or OH. Bridge positions count the residues as written; N and C are the ends. * marks the point of attachment. C20 diacid = O=C(O)CCCCCCCCCCCCCCCCCCC(=O)*; γGlu = O=C(O)[C@H](CCC(=O)[*:2])N[*:1]

How the values were obtained:
[1] = target: T1, human amylin receptor (amylin 3(a) receptor: human calcitonin receptor with RAMP-3) (human, UniProt P30988 25-474; O60896 24-148, limits assumed); experiment: SPA competition binding on membranes of BHK cells with human calcitonin receptor + RAMP-3; displacement of 125I-rat amylin (Assay V)
T1 construct: whole, on cells; Whole cells in the luciferase assay (Assay II a); also called hAmylin-R; hAmylinR
T1 sequence (looked up) 1: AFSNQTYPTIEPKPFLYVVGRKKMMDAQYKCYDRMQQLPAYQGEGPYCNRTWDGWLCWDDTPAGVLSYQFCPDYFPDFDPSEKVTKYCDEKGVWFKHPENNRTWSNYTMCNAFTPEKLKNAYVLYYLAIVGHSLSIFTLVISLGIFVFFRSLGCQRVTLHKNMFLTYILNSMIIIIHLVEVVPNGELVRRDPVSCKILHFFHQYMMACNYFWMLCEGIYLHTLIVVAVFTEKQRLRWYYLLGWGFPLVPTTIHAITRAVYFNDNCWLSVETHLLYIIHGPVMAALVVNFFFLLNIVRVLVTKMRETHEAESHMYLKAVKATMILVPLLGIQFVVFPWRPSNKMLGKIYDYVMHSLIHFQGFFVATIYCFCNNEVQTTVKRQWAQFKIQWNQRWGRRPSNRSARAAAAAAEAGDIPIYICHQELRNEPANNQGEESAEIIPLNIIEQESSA
T1 sequence (looked up) 2: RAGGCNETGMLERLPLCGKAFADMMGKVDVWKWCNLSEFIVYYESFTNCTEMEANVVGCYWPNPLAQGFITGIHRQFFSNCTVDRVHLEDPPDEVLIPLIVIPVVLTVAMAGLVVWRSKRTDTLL
Method: The binding assay was performed using scintillation proximity assay (SPA) beads (RPNQ0001) from PerkinElmer and cell membranes from the Amylin 3(a)/CRE-luc cells (as described in Assay (II)) were used. Membranes were prepared in the following way; the cells were rinsed with PBS and incubated with Versene for approximately 5 min before harvesting. The cells were flushed with PBS and the cell-suspension was centrifuged for 5 min at 1000 rpm. Cells were homogenized (ultrathurrax) in a buffer containing 20 mM Na-HEPES and 10 mM EDTA (pH 7.4) and centrifuged at 20.000 rpm for 15 min. The resulting pellet was resuspended, homogenized and centrifuged (20.000 rpm, 15 min) in a buffer containing 20 mM Na-HEPES and 0.1 mM EDTA (pH 7.4, buffer 2). The resulting pellet was resuspended in buffer 2 and protein concentration was measured (BCA protein Assay, Pierce). The homogenate was kept cold during the whole procedure. The membranes were kept at −80° C. until use. The assay was performed in a 384 well Optiplate (PerkinElmer) in a total volume of 40 ul. Membranes were mixed with SPA beads. Final concentration of membranes 35 ng/μL final and SPA beads was 0.05 mg/well. Test-compounds were dissolved in DMSO and further diluted in assay buffer (50 mM Hepes, pH 7.4, 1 mM CaCl2, 5 mM MgCl₂, 0.1% OA and 0.02% Tween20). […] The final mixture was incubated with shaking at 400 rpm for 120 min at 25° C. prior to centrifugation (1500 rpm, 10 min). Samples were analyzed on TopCounter™ (Packard). The IC₅₀ was calculated using (one site binding competition analysis) GraphPad Prism5 as a measure of receptor affinity.

[2] = target: T2, human calcitonin receptor (human, UniProt P30988 25-474); experiment: cell-based or functional assay
T2 sequence (looked up): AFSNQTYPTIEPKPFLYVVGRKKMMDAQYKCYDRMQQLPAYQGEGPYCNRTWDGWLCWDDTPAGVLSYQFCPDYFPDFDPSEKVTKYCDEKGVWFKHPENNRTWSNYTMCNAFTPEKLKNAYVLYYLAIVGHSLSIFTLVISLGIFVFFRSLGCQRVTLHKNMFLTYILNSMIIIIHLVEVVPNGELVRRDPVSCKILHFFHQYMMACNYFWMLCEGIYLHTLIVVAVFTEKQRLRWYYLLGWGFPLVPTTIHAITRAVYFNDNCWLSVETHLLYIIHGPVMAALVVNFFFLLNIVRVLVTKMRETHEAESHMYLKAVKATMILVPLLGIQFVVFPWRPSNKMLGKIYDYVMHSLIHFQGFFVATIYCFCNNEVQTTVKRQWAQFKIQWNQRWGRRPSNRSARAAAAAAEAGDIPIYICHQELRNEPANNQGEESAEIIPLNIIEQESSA

Binder | IC50 [1] | Ratio hCT/hAmylin funct. [2]
{C20 diacid-γGlu}-KCNTATCATQRLADFLRHSSPNFGAIPSSTNVGSNTP-NH2 (disulfide 2-7; SMILES CC[C@H](C)[C@H](NC(=O)[C@H](C)NC(=O)CNC(=O)[C@H](Cc1ccccc1)NC(=O)[C@H](CC(N)=O)NC(=O)[C@@H]1CCCN1C(=O)[C@H](CO)NC(=O)[C@H](CO)NC(=O)[C@H](Cc1c[nH]cn1)NC(=O)[C@H](CCCNC(=N)N)NC(=O)[C@H](CC(C)C)NC(=O)[C@H](Cc1ccccc1)NC(=O)[C@H](CC(=O)O)NC(=O)[C@H](C)NC(=O)[C@H](CC(C)C)NC(=O)[C@H](CCCNC(=N)N)NC(=O)[C@H](CCC(N)=O)NC(=O)[C@@H](NC(=O)[C@H](C)NC(=O)[C@@H]1CSSC[C@H](NC(=O)[C@H](CCCCN)NC(=O)CC[C@H](NC(=O)CCCCCCCCCCCCCCCCCCC(=O)O)C(=O)O)C(=O)N[C@@H](CC(N)=O)C(=O)N[C@@H]([C@@H](C)O)C(=O)N[C@@H](C)C(=O)N[C@@H]([C@@H](C)O)C(=O)N1)[C@@H](C)O)C(=O)N1CCC[C@H]1C(=O)N[C@@H](CO)C(=O)N[C@@H](CO)C(=O)N[C@H](C(=O)N[C@@H](CC(N)=O)C(=O)N[C@H](C(=O)NCC(=O)N[C@@H](CO)C(=O)N[C@@H](CC(N)=O)C(=O)N[C@H](C(=O)N1CCC[C@H]1C(N)=O)[C@@H](C)O)C(C)C)[C@@H](C)O, also called compound 10) | 0.082 nM | 1 ratio
{C20 diacid-γGlu}-KCNTATCATQRLAEFLRHSSPNFGAIPSSTNVGSDTP-NH2 (disulfide 2-7; SMILES CC[C@H](C)[C@H](NC(=O)[C@H](C)NC(=O)CNC(=O)[C@H](Cc1ccccc1)NC(=O)[C@H](CC(N)=O)NC(=O)[C@@H]1CCCN1C(=O)[C@H](CO)NC(=O)[C@H](CO)NC(=O)[C@H](Cc1c[nH]cn1)NC(=O)[C@H](CCCNC(=N)N)NC(=O)[C@H](CC(C)C)NC(=O)[C@H](Cc1ccccc1)NC(=O)[C@H](CCC(=O)O)NC(=O)[C@H](C)NC(=O)[C@H](CC(C)C)NC(=O)[C@H](CCCNC(=N)N)NC(=O)[C@H](CCC(N)=O)NC(=O)[C@@H](NC(=O)[C@H](C)NC(=O)[C@@H]1CSSC[C@H](NC(=O)[C@H](CCCCN)NC(=O)CC[C@H](NC(=O)CCCCCCCCCCCCCCCCCCC(=O)O)C(=O)O)C(=O)N[C@@H](CC(N)=O)C(=O)N[C@@H]([C@@H](C)O)C(=O)N[C@@H](C)C(=O)N[C@@H]([C@@H](C)O)C(=O)N1)[C@@H](C)O)C(=O)N1CCC[C@H]1C(=O)N[C@@H](CO)C(=O)N[C@@H](CO)C(=O)N[C@H](C(=O)N[C@@H](CC(N)=O)C(=O)N[C@H](C(=O)NCC(=O)N[C@@H](CO)C(=O)N[C@@H](CC(=O)O)C(=O)N[C@H](C(=O)N1CCC[C@H]1C(N)=O)[C@@H](C)O)C(C)C)[C@@H](C)O, also called compound 11) | 0.105 nM | 0.9 ratio
{C20 diacid-γGlu}-KCNTATCATQRLAEFLRHSSPNFGAIPSSTNVGSHTY-NH2 (disulfide 2-7; SMILES CC[C@H](C)[C@H](NC(=O)[C@H](C)NC(=O)CNC(=O)[C@H](Cc1ccccc1)NC(=O)[C@H](CC(N)=O)NC(=O)[C@@H]1CCCN1C(=O)[C@H](CO)NC(=O)[C@H](CO)NC(=O)[C@H](Cc1c[nH]cn1)NC(=O)[C@H](CCCNC(=N)N)NC(=O)[C@H](CC(C)C)NC(=O)[C@H](Cc1ccccc1)NC(=O)[C@H](CCC(=O)O)NC(=O)[C@H](C)NC(=O)[C@H](CC(C)C)NC(=O)[C@H](CCCNC(=N)N)NC(=O)[C@H](CCC(N)=O)NC(=O)[C@@H](NC(=O)[C@H](C)NC(=O)[C@@H]1CSSC[C@H](NC(=O)[C@H](CCCCN)NC(=O)CC[C@H](NC(=O)CCCCCCCCCCCCCCCCCCC(=O)O)C(=O)O)C(=O)N[C@@H](CC(N)=O)C(=O)N[C@@H]([C@@H](C)O)C(=O)N[C@@H](C)C(=O)N[C@@H]([C@@H](C)O)C(=O)N1)[C@@H](C)O)C(=O)N1CCC[C@H]1C(=O)N[C@@H](CO)C(=O)N[C@@H](CO)C(=O)N[C@H](C(=O)N[C@@H](CC(N)=O)C(=O)N[C@H](C(=O)NCC(=O)N[C@@H](CO)C(=O)N[C@@H](Cc1c[nH]cn1)C(=O)N[C@H](C(=O)N[C@@H](Cc1ccc(O)cc1)C(N)=O)[C@@H](C)O)C(C)C)[C@@H](C)O, also called compound 18) | 0.554 nM | 4.8 ratio
{C20 diacid-γGlu}-KCNTATCATQRLAEFLRHSSPNFGAIPSPTNVGSNTY-NH2 (disulfide 2-7; SMILES CC[C@H](C)[C@H](NC(=O)[C@H](C)NC(=O)CNC(=O)[C@H](Cc1ccccc1)NC(=O)[C@H](CC(N)=O)NC(=O)[C@@H]1CCCN1C(=O)[C@H](CO)NC(=O)[C@H](CO)NC(=O)[C@H](Cc1c[nH]cn1)NC(=O)[C@H](CCCNC(=N)N)NC(=O)[C@H](CC(C)C)NC(=O)[C@H](Cc1ccccc1)NC(=O)[C@H](CCC(=O)O)NC(=O)[C@H](C)NC(=O)[C@H](CC(C)C)NC(=O)[C@H](CCCNC(=N)N)NC(=O)[C@H](CCC(N)=O)NC(=O)[C@@H](NC(=O)[C@H](C)NC(=O)[C@@H]1CSSC[C@H](NC(=O)[C@H](CCCCN)NC(=O)CC[C@H](NC(=O)CCCCCCCCCCCCCCCCCCC(=O)O)C(=O)O)C(=O)N[C@@H](CC(N)=O)C(=O)N[C@@H]([C@@H](C)O)C(=O)N[C@@H](C)C(=O)N[C@@H]([C@@H](C)O)C(=O)N1)[C@@H](C)O)C(=O)N1CCC[C@H]1C(=O)N[C@@H](CO)C(=O)N1CCC[C@H]1C(=O)N[C@H](C(=O)N[C@@H](CC(N)=O)C(=O)N[C@H](C(=O)NCC(=O)N[C@@H](CO)C(=O)N[C@@H](CC(N)=O)C(=O)N[C@H](C(=O)N[C@@H](Cc1ccc(O)cc1)C(N)=O)[C@@H](C)O)C(C)C)[C@@H](C)O, also called compound 37) | 0.97 nM | 4 ratio
{C20 diacid-γGlu}-KCNTATCATQRLAEFLRHSSPNFGAIPSSTNVGSNTP-NH2 (disulfide 2-7, also called compound 8) | 0.072 nM | 1.1 ratio
{C20 diacid-γGlu-γGlu}-KCNTATCATQRLAEFLRHSSPNFGAIPSSTNVGSNTP-NH2 (disulfide 2-7; SMILES CC[C@H](C)[C@H](NC(=O)[C@H](C)NC(=O)CNC(=O)[C@H](Cc1ccccc1)NC(=O)[C@H](CC(N)=O)NC(=O)[C@@H]1CCCN1C(=O)[C@H](CO)NC(=O)[C@H](CO)NC(=O)[C@H](Cc1c[nH]cn1)NC(=O)[C@H](CCCNC(=N)N)NC(=O)[C@H](CC(C)C)NC(=O)[C@H](Cc1ccccc1)NC(=O)[C@H](CCC(=O)O)NC(=O)[C@H](C)NC(=O)[C@H](CC(C)C)NC(=O)[C@H](CCCNC(=N)N)NC(=O)[C@H](CCC(N)=O)NC(=O)[C@@H](NC(=O)[C@H](C)NC(=O)[C@@H]1CSSC[C@H](NC(=O)[C@H](CCCCN)NC(=O)CC[C@H](NC(=O)CC[C@H](NC(=O)CCCCCCCCCCCCCCCCCCC(=O)O)C(=O)O)C(=O)O)C(=O)N[C@@H](CC(N)=O)C(=O)N[C@@H]([C@@H](C)O)C(=O)N[C@@H](C)C(=O)N[C@@H]([C@@H](C)O)C(=O)N1)[C@@H](C)O)C(=O)N1CCC[C@H]1C(=O)N[C@@H](CO)C(=O)N[C@@H](CO)C(=O)N[C@H](C(=O)N[C@@H](CC(N)=O)C(=O)N[C@H](C(=O)NCC(=O)N[C@@H](CO)C(=O)N[C@@H](CC(N)=O)C(=O)N[C@H](C(=O)N1CCC[C@H]1C(N)=O)[C@@H](C)O)C(C)C)[C@@H](C)O, also called compound 14) | 0.196 nM | 1.6 ratio
